The source of these data is patent US20110200608A1 (UNIVERSITY OF PITTSBURGH OF THE COMMONWEALTH SYSTEM OF …, published 2011).

Bridges are numbered along the chain shown (N, C = ends). Where no end group is shown, it is not given here.

For orientation: Kd means a measure of binding affinity in units of concentration. The koff is the rate constant with which the complex falls apart. Low readings indicate slow dissociation, high ones fast dissociation. For orientation: kon means the rate constant with which the complex forms. High values mean fast association, low ones slow association.

The target in test [1] is T1, HMW-MAA-specific human scFv C21 (biotinylated (NHS-LC-biotin) in the competition and panning assays). The experiment in a line: SPR (Biacore 3000, 25 C), peptide over amine-coupled scFv C21, koff/kon.
T1 sequence (chain, as listed by the source): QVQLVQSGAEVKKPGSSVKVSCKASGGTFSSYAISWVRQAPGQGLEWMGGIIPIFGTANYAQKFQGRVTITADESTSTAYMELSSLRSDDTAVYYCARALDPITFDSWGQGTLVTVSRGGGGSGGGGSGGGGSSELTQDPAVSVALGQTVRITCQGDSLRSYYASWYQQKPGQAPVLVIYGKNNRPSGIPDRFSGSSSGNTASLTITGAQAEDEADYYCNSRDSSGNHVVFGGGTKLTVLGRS
The target of test [2] is T1, HMW-MAA-specific human scFv C21. The experiment in a line: calculated from a molecular docking model (…); not measured.
The target is the same in test [3]. The experiment in a line: SPR (Biacore 3000, 25 C), peptide over amine-coupled scFv C21, 1:1 Langmuir fit. On the technique in general: In SPR one partner is held on a chip, and binding of the other changes the refractive index at the surface.
The target is the same in test [4]. Description: inhibition cell ELISA: peptide incubated 2 h at 4 °C with PP scFv C21 (1:1600) and biotinylated mAb 9E10, then added to Colo38 cells, SA-HRP; blocked ligand: HMW-MAA on Colo38 cells. (ELISA stands for enzyme-linked immunosorbent assay.)

B1: peptide P1C21 (SPSWYCPDCDKRPLV), cyclized (peptide)
peptide: SPSWYCPDCDKRPLV
modifications: disulfide 6-9 (inferred)
notes: Synthetic peptide
For B1, binding in test [1] was put at a Kd of 8.24 µM. Besides, in test [2], the “Total Energy (calculated binding energy)” value is -93.8 kcal/mol. In test [3], this molecule had a koff of 0.0097 s⁻¹ and a kon of 1180 M⁻¹ s⁻¹. For the same molecule, the “IC50 (read off the curve)” value in test [4] is about 3 µM.

B2: peptide P3C21 (RPYRYDPLGDLKSRH), linear (peptide)
peptide: RPYRYDPLGDLKSRH
As for B2, the affinity in test [1], expressed as Kd, was 30.2 µM. Also, in test [2], the “Total Energy (calculated binding energy)” value is -7.3 kcal/mol. In addition, in test [3], the koff is 0.0655 s⁻¹ and the kon was 2170 M⁻¹ s⁻¹. Moreover, the “IC50 (read off the curve)” value in test [4] is about 1 µM.

B3: peptide P3S10 (RPYRYDPLGSLKSRH) (peptide)
peptide: RPYRYDPLGSLKSRH
Molecule B3 returned a Kd in test [1] of 3.34 µM. For the same molecule, in test [2], the “Total Energy (calculated binding energy)” value was -16.4 kcal/mol. Moreover, in test [3], the koff turned out to be 0.00307 s⁻¹ and the kon was found to be 917 M⁻¹ s⁻¹.
